Here are results for nine substances from article PMC7046470.

The target in assay [1] is HA-Rtn2(mAIM1,2,5,6) (maize).
The target of assay [2] is HA-Rtn2 (maize).
The target in assay [3] is HA-Rtn2 (maize). As to the kind of experiment: co-IP; anti-HA affinity gel on lysates of Arabidopsis protoplasts (wild type; also atg5-1) transiently expressing the proteins, incubated with or without 2 mM DTT or 5 μg/mL tunicamycin for 3 hr; 150 mM Tris-HCl pH 7.5, 150 mM NaCl, 1.5% Triton X-100, 2 hr at 4°C.
The next assay has as its target GFP-Atg8a. Put plainly: co-immunoprecipitation, densitometry of immunoblots. The settings on record: Arabidopsis protoplasts; immunoprecipitation with anti-HA antibodies; three biological replicates; parent: est. 1.0; read off a plot. For orientation: In western blotting, separated proteins are transferred to a membrane and probed.
Assay [4] deals with maize Atg8a, split-ubiquitin two-hybrid fusion. As to the kind of experiment: split-ubiquitin Y2H. Conditions: colonies on -LWHA medium versus -LW medium, bait pBT3N-ATG8a, parent: est. 52, read off a plot.

As to GFP-Atg8a (natural protein), the percent of Arabidopsis protoplasts (DTT and ConA) with autophagic bodies labeled with both GFP-Atg8a and Rtn2(mAIM1,2,5,6)-mCherry (mCherry fusion) in assay [1] was 23%. For the same substance, in the assay with HA-Rtn2(mAIM1) (maize), the percent of Arabidopsis protoplasts (DTT and ConA) with autophagic bodies labeled with both GFP-Atg8a and Rtn2(mAIM1)-mCherry (mCherry fusion) was 42%. This substance also registered a percent of Arabidopsis protoplasts (DTT and ConA) with autophagic bodies labeled with both GFP-Atg8a and Rtn2-mCherry (Rtn2 as mCherry fusion) in the assay with HA-Rtn2 (maize) [2] of 54%. In addition, the fold increase in binding upon DTT treatment against no DTT in the assay with HA-Rtn2 (maize) [3] amounted to 3 fold. Take HA-Rtn2 mAIM1: in the assay with GFP-Atg8a, the ratio to parent was 0.87. The same measure, in the same setting: next, HA-Rtn2 mAIM1,2,5,6: 0.02.

As to HA-Rtn2 mAIM1,5, in the assay with GFP-Atg8a, the ratio to parent is 0.38.

Consider HA-Rtn2 mAIM1,5,6, for which the ratio to parent with GFP-Atg8a was 0.22. For “maize Rtn2, split-ubiquitin two-hybrid fusion mAIM1”, the response in assay [4] (prey pPR3C-Rtn2(mAIM1)) was 33%.

Regarding “maize Rtn2, split-ubiquitin two-hybrid fusion mAIM1,2,5,6”, the response in assay [4] (prey pPR3C-Rtn2(mAIM1,2,5,6)) amounted to 7%. For “maize Rtn2, split-ubiquitin two-hybrid fusion mAIM1,5”, the response in assay [4] (prey pPR3C-Rtn2(mAIM1,5)) was found to be 16%. For the substance “maize Rtn2, split-ubiquitin two-hybrid fusion mAIM1,5,6”, the response in assay [4] (prey pPR3C-Rtn2(mAIM1,5,6)) amounted to 12%.
